Test results taken from US12016935B2, “Methods for detecting CCR2 receptors” (Washington University, priority 2016, dated 2024).
Where no end group is shown, it is not given here. [ ]: non-standard residue; d: D form.

How the values were obtained:
[1] = mouse, in vivo
Description: C57BL/6 mice were used for the biodistribution studies. About 10 μCi of ^64Cu-DOTA-ECL1i in 100 μL saline (APP pharmaceuticals, Schaumburg, IL) were injected via the tail vein. The mice were anesthetized with inhaled isoflurane and re-anesthetized before euthanasia by cervical dislocation at each time point (1 hour after injection, n=4/group). Organs of interest were collected, weighed and counted in a Beckman 8000 gamma counter (Beckman, Fullterton, CA).

[2] = mouse, in vivo; remark: listed apart in the source
Description: After euthanasia, 1 h post-radiotracer injection, organs of interest were collected, weighed and assayed by gamma counter (Beckman, Brea, CA) as described (23). Standards were prepared and measured in parallel to calculate the percentage of the injected dose per gram of tissue (% ID/g).

CCR2 [3] = molecular target: T1, CCR2 (Homo sapiens, UniProt P41597); test: Autoradiography on human lung tissue sections; type: binding; design: Fixed human lung tissue sections; from tissue; host or cells: human lung (COPD explants and donor lungs), fixed paraffin sections; details: lung tissue from subjects with COPD
Description: Fixed human lung tissue sections that were deparaffinized and hydrated in PBS were incubated with ^64Cu-DOTA-ECL1i for 5 min (n=4 donor, n=6 COPD). […] Slides were washed 30 times with water then placed in an instant imager (Packard, Meriden, CT) for 30 minutes.
Target sequence in this assay (P41597 whole entry): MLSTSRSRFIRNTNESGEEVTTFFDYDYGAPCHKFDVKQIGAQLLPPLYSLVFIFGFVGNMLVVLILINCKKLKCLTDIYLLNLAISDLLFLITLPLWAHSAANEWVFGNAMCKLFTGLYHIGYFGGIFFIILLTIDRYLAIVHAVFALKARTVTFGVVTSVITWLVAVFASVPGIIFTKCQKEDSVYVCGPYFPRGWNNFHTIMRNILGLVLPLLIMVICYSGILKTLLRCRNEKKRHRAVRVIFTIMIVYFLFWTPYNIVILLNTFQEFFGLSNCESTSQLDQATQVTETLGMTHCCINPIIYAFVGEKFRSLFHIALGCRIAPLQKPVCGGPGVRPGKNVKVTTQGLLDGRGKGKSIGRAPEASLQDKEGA

CCR2 [4] = molecular target: T2, CCR2 (Mus musculus, UniProt P51683)
T2 sequence (P51683 whole entry): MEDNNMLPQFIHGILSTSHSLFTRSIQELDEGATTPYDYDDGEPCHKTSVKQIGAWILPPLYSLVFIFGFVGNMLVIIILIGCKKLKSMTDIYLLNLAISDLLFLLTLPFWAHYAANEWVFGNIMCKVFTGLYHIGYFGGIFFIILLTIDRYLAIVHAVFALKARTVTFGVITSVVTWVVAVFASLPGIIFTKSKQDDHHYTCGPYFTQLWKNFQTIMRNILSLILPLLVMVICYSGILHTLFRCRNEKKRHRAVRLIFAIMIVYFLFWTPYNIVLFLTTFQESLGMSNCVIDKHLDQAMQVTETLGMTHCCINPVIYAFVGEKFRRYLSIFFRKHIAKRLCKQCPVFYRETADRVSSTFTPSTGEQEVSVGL
Description: Instead of a dynamic scan, a static scan was performed at 1, 4 and 24 hours after injection. The PET images were reconstructed with the maximum a posteriori algorithm and analyzed by Inveon Research Workplace. The organ uptake was calculated as percent injected dose per gram (% ID/g) of tissue in three-dimensional regions of interest without the correction for partial volume effect (14).

[5] = test system: monocytes (Ly6G^lo, Ly6C^hi); test: Flow cytometry of lung immune cells binding ECL1i-Dylight 550 in vivo; design: species or system mouse; details: injected i.v. 24 h post LPS; lungs analyzed one hour later
Description: Mice (n=4 PBS, n=5 LPS) delivered intratracheal PBS or LPS, and 24 hours later were injected intravenously with ECL1i labeled with Dylight 550 (100 μg) to determine the type of inflammatory cell binding ECL1i. Other mice were treated in parallel but not given ECL1i-Dylight 550 (n=4 PBS, n=5 LPS). One h post-injection, a single cell suspension was produced from the lungs, immunostained with immune cell markers (TABLE 2) and analyzed by flow cytometry.
Mice delivered intratracheal PBS or LPS were injected intravenously with ECL1i labeled with Dylight 550, as with the radiolabeled probe, to determine the type of inflammatory cell binding ECL1i. […] Cells were suspended in FACS buffer, counted by hemocytometer, and prepared for flow cytometry. […] Counts from 1 to 10×10^4 cells were collected for each sample on a FACSCalibur (Becton Dickinson), dual laser, flow cytometer using CellQuest Pro software (BD Biosciences), and analyzed using FlowJo software (Ashland, OR). The mean fluorescent intensity was determined by calculating the geometric mean of Dylight 550 fluorescence of the cell types identified in ECL1i-Dylight 550-injected mice and subtracting the fluorescent background of the same cell types from similarly treated mice not injected with ECL1i-Dylight 550.

[6] = Toxicity study in mice (serum chemistries, histology); type: in vivo, mouse; details: i.v. 110 μg, 500-fold the estimated human imaging dose; evaluated 24 h later
Description: Toxicity studies were performed by S. Greco, DVM (Dept. of Comparative Med., Washington Univ.).

human CCR1 = molecular target: T3, human CCR1 (Homo sapiens, UniProt P32246); test: Migration of cells expressing human CCR1; type: cell-based
T3 construct: expressed in transfected cells
T3 sequence (P32246 1-355): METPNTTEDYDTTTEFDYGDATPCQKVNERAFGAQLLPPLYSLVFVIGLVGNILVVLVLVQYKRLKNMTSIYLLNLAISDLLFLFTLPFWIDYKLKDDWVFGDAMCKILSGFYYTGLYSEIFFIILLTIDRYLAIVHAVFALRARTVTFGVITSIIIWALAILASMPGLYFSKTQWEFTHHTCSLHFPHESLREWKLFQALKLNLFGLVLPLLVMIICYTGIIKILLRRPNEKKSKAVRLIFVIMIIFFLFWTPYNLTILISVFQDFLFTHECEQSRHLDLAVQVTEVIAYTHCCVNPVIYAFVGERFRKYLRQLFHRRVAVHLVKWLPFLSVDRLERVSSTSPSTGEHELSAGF

[7] = test system: CCR2^+ inflammatory monocytes; test: CCL2-mediated chemotaxis of monocytes; type: cell-based
Source text: (§1) CCR2^+ cells migrate in response to CCL2.

CCR2 [8] = molecular target: T1, CCR2; design: expressed in transfected cells; host or cells: HEK293; details: compared to CCL2 ligand in vitro; cited from earlier work
Target sequence in this assay (P41597 whole entry, species assumed): as the sequence (P41597 whole entry) above

human CCR2 (hCCR2) = molecular target: T4, human CCR2 (hCCR2) (Homo sapiens, UniProt P41597); test: CCL2-induced chemotaxis in CHO cells that stably express human CCR2; type: cell-based
T4 construct: expressed in transfected cells; host or cells: CHO
T4 sequence (P41597 whole entry): as above
Source text: as §1

human CCR5 = molecular target: T5, human CCR5 (Homo sapiens, UniProt P51681); test: Migration of cells expressing human CCR5; type: cell-based
T5 construct: expressed in transfected cells
T5 sequence (P51681 whole entry): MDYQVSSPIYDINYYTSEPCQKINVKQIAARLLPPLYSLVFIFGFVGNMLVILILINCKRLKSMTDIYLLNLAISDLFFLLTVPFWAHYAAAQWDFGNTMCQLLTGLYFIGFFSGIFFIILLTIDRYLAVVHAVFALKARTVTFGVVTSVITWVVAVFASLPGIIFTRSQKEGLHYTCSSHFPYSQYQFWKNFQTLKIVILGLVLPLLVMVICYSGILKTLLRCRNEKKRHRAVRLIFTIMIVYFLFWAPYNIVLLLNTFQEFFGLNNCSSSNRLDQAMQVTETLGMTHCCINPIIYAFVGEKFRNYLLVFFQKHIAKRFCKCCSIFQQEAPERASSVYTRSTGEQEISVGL

human CX3CR1 = molecular target: T6, human CX3CR1 (Homo sapiens, UniProt P49238); test: Migration of cells expressing human CX3CR1; type: cell-based
T6 construct: expressed in transfected cells
T6 sequence (P49238 1-355): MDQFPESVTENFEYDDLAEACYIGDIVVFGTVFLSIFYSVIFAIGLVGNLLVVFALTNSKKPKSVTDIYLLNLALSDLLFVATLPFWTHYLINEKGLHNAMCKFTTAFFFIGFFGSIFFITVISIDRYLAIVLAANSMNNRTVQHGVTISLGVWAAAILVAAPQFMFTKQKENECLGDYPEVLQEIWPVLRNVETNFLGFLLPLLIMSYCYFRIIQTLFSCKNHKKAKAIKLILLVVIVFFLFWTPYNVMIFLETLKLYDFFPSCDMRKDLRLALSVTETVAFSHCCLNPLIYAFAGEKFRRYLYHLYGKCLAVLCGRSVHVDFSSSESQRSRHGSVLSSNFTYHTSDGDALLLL

CCR2 [9] = molecular target: T2, CCR2; test: PET/CT imaging in LPS mouse lung injury model; type: in vivo; design: tissue The Jackson Laboratories; host or cells: C57BL/6 mice, lung and aortic arch in vivo (CCR2+ monocytes/macrophages); details: PET
Source text: The Institutional Animal Care and Use Committee approved these studies. Wild type (n=77) and CCR2-deficient (CCR2^−/−, n=4) mice (C57BL6/J strain) were 8 to 12 weeks of age, of both sexes and approximately 25 g in weight. Mice were used for radiotracer stability studies (n=3) and lung injury studies that included: immunostaining for CCR2 (n=6), in vivo immune cell peptide binding (n=18), lung water weight measurements (n=6), in vivo biodistribution (n=12) and PET/CT imaging (n=36). For the lung injury studies, mice were not treated (naive, n=8), administered intratracheal vehicle control, phosphate buffered saline (PBS, 1 μL/g, n=26) or lipopolysaccharide (LPS, endotoxin, E. coli strain 055:B5, Sigma-Aldrich, St. Louis, MO), at a dose of 2.5 μg/g (n=44), “high” dose, 10 μg/g (n=3), or “low” dose, 0.5 μg/g (n=3) LPS. All CCR2-deficient mice were administered an LPS dose of 2.5 μg/g. Lung water was quantified using wet-to-dry weight ratios in PBS- or intermediate dose LPS-treated mice (n=3/group). Lungs were resected and weighted immediately, then compared to weights obtained after drying at 65° C. for 48 h.
Time-activity curves were calculated from the ROIs from PET images obtained in a subgroup (n=3/group) of the PBS- and LPS-treated mice undergoing imaging at 24 h. […]

[10] = test system: CD45^+ immune cells in COPD lung; test: Flow cytometry of cells digested from human COPD lung; type: cell-based
Description: There were three CCR2 phenotypes (high, intermediate, normal), with implications for future therapies. […] Our tissue bank also includes cells digested from lung for flow cytometry studies. […] We obtain approximately 6-8 explanted lungs per year from COPD subjects. We propose to also examine lung tissue incubated with ECL1i-647 and cells specific antibodies using two-photon microscopy to localize ECL1i.

CCR2 [11] = molecular target: T1, CCR2; test: Binding of fluorescently-labeled CCL1 to CCR2-expressing HEK293 cells; design: expressed in transfected cells; host or cells: HEK293
Source text: as §1
Target sequence in this assay (P41597 whole entry, species assumed): as the sequence (P41597 whole entry) above

With `CC(C)C[C@@H](N)C(=O)NCC(=O)N[C@@H](C(=O)N[C@H](Cc1ccccc1)C(=O)N[C@H](CC(C)C)C(=O)N[C@H](CCCCN)C(=O)N[C@H](CSC1CC(=O)N(CCNC(=O)CN2CCN(CC(=O)O)CCN(CC(=O)O)CCN(CC(=O)O)CC2)C1=O)C(=O)O)[C@H](C)O` (single isomer, unassigned) [^64Cu-DOTA-ECL1i, metal not drawn] the “uptake in the donor lung relative to native lung (biodistribution)” value [1] was “more than twice”, the “blood retention, LPS versus PBS treated mice” value [2] was “no difference in blood retention” and the “specificity determined by non-radioactive blockade” value (CCR2 [3]) was 54.5%. For the same molecule, the “PET signal in the grafts blocked by competitive receptor blocking” value (CCR2 [4]; transplantation into wild type recipients, excess ECL1i) was “approximately 75%”.

For “ECL1i-Dylight 550: Maleimide-modified Dylight 550 conjugated to ECL1i on the cysteine residue ([dL]G[dT][dF][dL][dK][dC](Dylight 550 maleimide))”, the “binding to monocytes (Ly6G^lo, Ly6C^hi) induced by LPS” value [5] was “significant binding”.

In the case of `CC(C)C[C@@H](N)C(=O)NCC(=O)N[C@@H](C(=O)N[C@H](Cc1ccccc1)C(=O)N[C@H](CC(C)C)C(=O)N[C@H](CCCCN)C(=O)N[C@H](CSC1CC(=O)N(CCNC(=O)CN2CCN(CC(=O)O)CCN(CC(=O)O)CCN(CC(=O)O)CC2)C1=O)C(=O)O)[C@H](C)O` (single isomer, unassigned) [Cu-DOTA-ECL1i], the toxicity findings [6] is reported as “normal serum hepatic and renal chemistries, and histologic examination of lung, liver and kidneys”.

With “^64CuAuNCs-ECL1i: ECL1i-conjugated gold nanoclusters doped with ^64Cu; multivalent targeted nanocluster ([dL]G[dT][dF][dL][dK][dC]; also: joined via TA-PEG-Maleimide to a gold nanocluster doped with 64Cu, attachment site not given here)” the “retention in the blood relative to monovalent ^64Cu-DOTA-ECL1i” value [1] was “six-fold higher” and the “share of accumulation in pulmonary grafts due to CCR2-mediated uptake” value (CCR2 [4]; accumulation of ^64CuAuNCs in native lungs set as background) was “more than 80%”.

In the case of “DLeu-Gly-DThr-DPhe-DLeu-DLys-DCys ([dL]G[dT][dF][dL][dK][dC]) [ECL1i]”, the inhibition of migration (human CCR1) is given as “did not inhibit the migration”, the “inhibition of CCL2-mediated chemotaxis of monocytes” value [7] is given as “inhibited CCL2-mediated chemotaxis of CCR2^+ inflammatory monocytes, but not of resident monocytes” and the CCR2 binding mode (CCR2 [8]) is given as “selectively bind CCR2 in a non-competitive way”. The “induction of migration of CHO-hCCR2 cells” value (human CCR2 (hCCR2); at concentrations that inhibited CCL2 signaling) was “did not induce the migration”, the “inhibition of CCL2-induced chemotaxis” value (human CCR2 (hCCR2); concentration-dependent manner) was “specifically inhibited CCL2-induced chemotaxis” and the inhibition of migration (human CCR5) was “did not inhibit the migration”. For the same molecule, the inhibition of migration (human CX3CR1) was “did not inhibit the migration”, the “activity in lungs after intratracheal lipopolysaccharide relative to saline control group” value (CCR2 [9]) was 3.5 fold and the “binding to human lung cells” value [10] was “bound a population of CD45^+ immune cells”. For the same molecule, the “effect on binding of fluorescently-labeled CCL1” value (CCR2 [11]) was “did not prevent the binding”.
